Assay results published in the supplement of paper PMC9732359.
± gives the uncertainty stated by the source.

Assay: protein stability index of a GFP-peptide fusion (yeast GPS) (PSI 1-4); higher = more stable; sorted into four equal gates, so the index is relative within each strain
In short: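 Yeast carrying a pooled library were grown to mid-log phase in leucine-free medium. Each library plasmid expresses Cherry and has a tiled 17-residue yeast protein peptide fused downstream of GFP. Cells were sorted into four equal gates by GFP/Cherry ratio, and plasmids from each gate were PCR-amplified, Illumina-sequenced and assigned to strains by barcode. Summing, across gates, the read frequency times the gate number gave each peptide's protein stability index.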

Row | Sequence | protein stability index (doa10∆) | protein stability index (pdr5∆) | protein stability index (san1∆) | protein stability index (ubr1∆)
1 | QLQQQPQMQCALQNLSQ [YGL172W/NUP49] | 2.19 ± 0.12 | 2.06 ± 0.09 | 2.42 ± 0.11 | 2.18 ± 0.077
2 | QLRKEIQLLDENVGTRL [MED11] | – | 3.09 ± 0.19 | 3.57 ± 0.11 | –
3 | QLSNWQKIRNSEGISEA [ITC1] | 2.94 ± 0.06 | 2.96 ± 0.083 | 2.97 ± 0.065 | 2.8 ± 0.073
4 | QLYFKKKVNYKVTSYDI [ISW2] | 2.63 ± 0.058 | 2.56 ± 0.052 | 2.7 ± 0.07 | 2.72 ± 0.047
5 | QMLIQGVWDVDNPLRQI [BRR2] | 3.54 ± 0.13 | 3.26 ± 0.19 | 3.47 ± 0.091 | 2.78 ± 0.14
6 | QMQQQQQAQAQAQAQAQ [GAL11] | 2.1 ± 0.074 | 2.08 ± 0.053 | 2.19 ± 0.059 | 1.97 ± 0.057
7 | QNDILQESFINTMSAWV [FAS2] | 2.14 ± 0.089 | 2.54 ± 0.19 | 2.55 ± 0.074 | 2.28 ± 0.086
8 | QNIAQSSNQSAPVETKK [HRT1] | 3.01 ± 0.11 | 2.91 ± 0.14 | 3.47 ± 0.15 | 3.16 ± 0.067
9 | QNNSTGSSSIIYYDSYI [SSN2] | 2.63 ± 0.095 | 2.8 ± 0.1 | 2.79 ± 0.056 | 2.81 ± 0.081
10 | QNRPYNHPELQGITRNV [RPC17] | 2.06 ± 0.046 | 2.38 ± 0.078 | 2.03 ± 0.087 | 2.17 ± 0.049
11 | QNSANNNSDDEDVDDEE [IRR1] | 3.28 ± 0.14 | 3.22 ± 0.15 | 3.62 ± 0.087 | 3.34 ± 0.1
12 | QNSLLTNTHPNFLSKIR [SNF2] | 2.96 ± 0.073 | 2.92 ± 0.075 | 3.01 ± 0.07 | 2.94 ± 0.047
13 | QPSQQPQQAQQQPNPLH [GAL11] | 2.91 ± 0.05 | 2.95 ± 0.037 | 2.85 ± 0.035 | 2.97 ± 0.034
14 | QPVNFNRSWDHAYNITF [RPO31] | 2.13 ± 0.12 | 2.37 ± 0.055 | 2.39 ± 0.12 | 2.45 ± 0.047
15 | QQMHEVRKELRGRAVVL [RPP0] | 3.01 ± 0.14 | 3.05 ± 0.13 | 3.27 ± 0.099 | 2.58 ± 0.073
16 | QQQQQFRHHVQIQQQQQ [SNF5] | 1.3 ± 0.033 | 1.76 ± 0.036 | 1.45 ± 0.086 | 1.32 ± 0.025
17 | QQQQQHQQQQQQQQQQQ [SNF5] | 2.73 ± 0.04 | 2.89 ± 0.05 | 2.94 ± 0.043 | 2.97 ± 0.044
18 | QQQQQQQQQQQQQQQQH [GAL11] | 2.68 ± 0.033 | 2.8 ± 0.029 | 2.698 ± 0.025 | 2.878 ± 0.024
19 | QQQQQQQQRRQLTPQQQ [GAL11] | 2.764 ± 0.025 | 2.826 ± 0.025 | 2.877 ± 0.02 | 2.833 ± 0.022
20 | QQQSSQNTVPNVLNQIN [GAL11] | 1.66 ± 0.063 | 1.82 ± 0.053 | 1.71 ± 0.078 | 2.01 ± 0.042

Row | Sequence | protein stability index (doa10∆) | protein stability index (pdr5∆) | protein stability index (san1∆) | protein stability index (ubr1∆)
21 | QQRIVSAYEASMVYSNV [RRP4] | 2.32 ± 0.062 | 2.62 ± 0.05 | 2.62 ± 0.045 | 2.33 ± 0.046
22 | QQSNKLHCCIQLLMGDI [RPN3] | 1.72 ± 0.045 | 1.99 ± 0.068 | 2 ± 0.064 | 1.84 ± 0.054
23 | QQTEHETEIKDLTQLLE [SMC4] | 3.44 ± 0.083 | 3.26 ± 0.048 | 3.31 ± 0.045 | 3.34 ± 0.046
24 | QRARDQDSIDISIKDNK [GAL11] | 3.25 ± 0.1 | 3.12 ± 0.12 | 3.31 ± 0.086 | 3.13 ± 0.086
25 | QRCKSNAISLQLKYDTS [YIL149C/MLP2] | 1.78 ± 0.062 | 1.66 ± 0.054 | 1.86 ± 0.12 | 1.79 ± 0.047
26 | QRDFRKHGAVHLSTYLK [RPL21A] | 2.6 ± 0.046 | 2.41 ± 0.042 | 2.48 ± 0.054 | 2.71 ± 0.036
27 | QREDKLKSHYYQTCKNS [SMC2] | 1.24 ± 0.073 | 1.25 ± 0.057 | 1.63 ± 0.071 | 1.42 ± 0.054
28 | QREEAKKVVKKAFEERH [RPL27A] | – | 3.78 ± 0.2 | 2.63 ± 0.29 | –
29 | QRETYDSNESDDDVTPS [YLR335W/NUP2] | 1.99 ± 0.1 | 2.43 ± 0.2 | 2.37 ± 0.15 | 2.65 ± 0.18
30 | QRITIPNVCNMKQYRDF [PRP28] | 2.85 ± 0.18 | 2.55 ± 0.092 | 2.07 ± 0.11 | 2.58 ± 0.11
31 | QRKTVNSDDILSLHENY [POP1] | 2.55 ± 0.053 | 2.65 ± 0.069 | 2.54 ± 0.068 | 2.92 ± 0.039
32 | QRQKTYVERFETQLKVV [SMC1] | 1.73 ± 0.065 | 2.51 ± 0.08 | 1.23 ± 0.2 | 1.24 ± 0.061
33 | QRRCLHCGALNGVVKKA [RPO31] | 2.35 ± 0.13 | 2.54 ± 0.13 | 2.41 ± 0.12 | 2.59 ± 0.11
34 | QRRSWRQYVGQLAPSSV [DIS3] | 2.06 ± 0.077 | 2.45 ± 0.18 | – | 2.36 ± 0.078
35 | QRRVLLSAPLSKELRAQ [RPL26A] | 2.65 ± 0.073 | 2.43 ± 0.078 | 2.62 ± 0.08 | 2.39 ± 0.063
36 | QRSRRKFSERRKALPKE [DSN1] | 3.47 ± 0.22 | – | 3.52 ± 0.099 | –
37 | QRTCLMTVTFLILAGQV [YCS4] | 1.19 ± 0.052 | 1.36 ± 0.05 | 1.27 ± 0.099 | 1.43 ± 0.043
38 | QRYQDLSQQQKDAQKKD [YIL149C/MLP2] | 3.09 ± 0.08 | 3.08 ± 0.062 | 2.79 ± 0.071 | 2.94 ± 0.046
39 | QSFQNPFTASQSNINTN [YIL149C/MLP2] | 2.57 ± 0.067 | 2.55 ± 0.044 | 2.62 ± 0.053 | 2.73 ± 0.043
